Source: publication PMC8583712, “p53 Transactivation Domain Mediates Binding and Phase Separation with Poly-PR/GR” (International Journal of Molecular Sciences, 2021)
Where no end group is shown, it is not given here. The star is where a group is joined. FITC = O=C1OC2(c3ccc(O)cc3Oc3cc(O)ccc32)c2ccc(NC(=S)*)cc21

B1: p53^TAD2 (human p53 transactivation domain 2, amino acids 37 to 57) (domain or fragment, UniProt P04637 37-57, looked up)
chain: SQAMDDLMLSPDDIEQWFTED
notes: human p53, amino acids 37 to 57 (TAD2 construct); 15N-labelled for NMR, unlabelled for fluorescence polarisation; source: E. coli BL21-DE3 Star, purified (lysis in 6 M urea, Ni-NTA, TEV cleavage, second Ni-NTA, SEC on Superdex Peptide)
B2: N-terminally fluorescein isothiocyanate (FITC)-labelled PR25 (peptide)
peptide: {FITC}-PRPRPRPRPRPRPRPRPRPRPRPRPRPRPRPRPRPRPRPRPRPRPRPRPR
notes: C9orf72 repeat-derived dipeptide repeat; also called FITC-labeled PR25; FITC-PR25; source: synthetic peptide (Peptide Specialty Laboratories GmbH, HPLC-purified)
B3: N-terminally fluorescein isothiocyanate (FITC)-labelled GR25 (peptide)
peptide: {FITC}-GRGRGRGRGRGRGRGRGRGRGRGRGRGRGRGRGRGRGRGRGRGRGRGRGR
notes: C9orf72 repeat-derived dipeptide repeat; also called FITC-labeled GR25; FITC-GR25; source: synthetic peptide (Peptide Specialty Laboratories GmbH, HPLC-purified)

Columns and labels:
p53^TAD2 = molecular target: T1, p53^TAD2 (Homo sapiens, UniProt P04637); assay: Fluorescence polarization, FITC-labeled PR25/GR25 with p53^TAD2; type: binding; settings: 100 nM FITC-labelled (N-terminal) peptide, 20 mM Hepes pH 7.0, 50 mM NaCl, 2 mM TCEP, 0.04% NaN3, room temperature, 35 µL, λex 495/λem 530 nm; 1:1 complex; mean of three experiments, errors = SD of the fit; read-out: equilibrium dissociation constant (Kd), p53^TAD2
T1 construct: amino acids 37 to 57 (p53 ^TAD2); ZZ-His6 (cleaved yes); made in house; host or cells: E. coli BL21-DE3 Star
From the text: Measurements were taken at room temperature in black 384-well plates using a ClarioStar Plus (BMG labtech, Ortenberg, Germany) spectrophotometer. Filters were selected as a function of FITC optical characteristics (λex= 495 nm, and λem= 530 nm). […] The polarization data were fitted using graphpad prism 8 with the following equation:(3) P=P0+Pmax×L/L + Kd
Here, P0 represents the polarization of FITC-labelled peptides in absence of p53^1−94 and p53^TAD2, and Pmax to the highest polarization of the binding curve corresponding to the saturation of the interaction. L corresponds to the concentration of p53^1–94 and p53^TAD2 proteins, and Kd is the dissociation constant.

[1] = molecular target: B3; assay: fluorescence polarisation; 100 nM FITC-labelled PR25/GR25 with increasing concentrations of p53 1-94 or p53 TAD2; room temperature; 20 mM Hepes pH 7.0, 50 mM NaCl, 2 mM TCEP, 0.04% NaN3; fit assuming a 1:1 complex; settings: both partners purified
[2] = molecular target: B2; assay: as above; settings: both partners purified
[3] = molecular target: T2, p53^1-94 (human p53 residues 1 to 94: transactivation domains 1 and 2 and poly-proline region) (human, UniProt P04637 1-94); assay: as above; settings: both partners purified
T2 construct: human p53, amino acids 1 to 94; 15N- or 13C,15N-labelled for NMR, unlabelled for fluorescence polarisation; also called N-terminal disordered region; source: E. coli BL21-DE3 Star, purified (lysis in 6 M urea, Ni-NTA, TEV cleavage, second Ni-NTA, SEC on Superdex 75 Increase)
T2 sequence (P04637 1-94): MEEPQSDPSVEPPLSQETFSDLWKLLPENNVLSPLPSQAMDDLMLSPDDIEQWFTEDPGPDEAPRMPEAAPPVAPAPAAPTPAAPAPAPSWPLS

Row | Molecule | Kd (p53^TAD2) | Kd [3] | further results
1 | N=C(N)NCCC[C@H](NC(=O)[C@@H]1CCCN1C(=O)[C@H](CCCNC(=N)N)NC(=O)[C@@H]1CCCN1C(=O)[C@H](CCCNC(=N)N)NC(=O)[C@@H]1CCCN1C(=O)[C@H](CCCNC(=N)N)NC(=O)[C@@H]1CCCN1C(=O)[C@H](CCCNC(=N)N)NC(=O)[C@@H]1CCCN1C(=O)[C@H](CCCNC(=N)N)NC(=O)[C@@H]1CCCN1C(=O)[C@H](CCCNC(=N)N)NC(=O)[C@@H]1CCCN1C(=O)[C@H](CCCNC(=N)N)NC(=O)[C@@H]1CCCN1C(=O)[C@H](CCCNC(=N)N)NC(=O)[C@@H]1CCCN1C(=O)[C@H](CCCNC(=N)N)NC(=O)[C@@H]1CCCN1C(=O)[C@H](CCCNC(=N)N)NC(=O)[C@@H]1CCCN1C(=O)[C@H](CCCNC(=N)N)NC(=O)[C@@H]1CCCN1C(=O)[C@H](CCCNC(=N)N)NC(=O)[C@@H]1CCCN1C(=O)[C@H](CCCNC(=N)N)NC(=O)[C@@H]1CCCN1C(=O)[C@H](CCCNC(=N)N)NC(=O)[C@@H]1CCCN1C(=O)[C@H](CCCNC(=N)N)NC(=O)[C@@H]1CCCN1C(=O)[C@H](CCCNC(=N)N)NC(=O)[C@@H]1CCCN1C(=O)[C@H](CCCNC(=N)N)NC(=O)[C@@H]1CCCN1C(=O)[C@H](CCCNC(=N)N)NC(=O)[C@@H]1CCCN1C(=O)[C@H](CCCNC(=N)N)NC(=O)[C@@H]1CCCN1C(=O)[C@H](CCCNC(=N)N)NC(=O)[C@@H]1CCCN1C(=O)[C@H](CCCNC(=N)N)NC(=O)[C@@H]1CCCN1C(=O)[C@H](CCCNC(=N)N)NC(=O)[C@@H]1CCCN1C(=O)[C@H](CCCNC(=N)N)NC(=O)[C@@H]1CCCN1C(=O)[C@H](CCCNC(=N)N)NC(=O)[C@@H]1CCCN1)C(=O)O [PR25] | 3.64 ± 1.16 µM |  | 
2 | N=C(N)NCCC[C@H](NC(=O)CNC(=O)[C@H](CCCNC(=N)N)NC(=O)CNC(=O)[C@H](CCCNC(=N)N)NC(=O)CNC(=O)[C@H](CCCNC(=N)N)NC(=O)CNC(=O)[C@H](CCCNC(=N)N)NC(=O)CNC(=O)[C@H](CCCNC(=N)N)NC(=O)CNC(=O)[C@H](CCCNC(=N)N)NC(=O)CNC(=O)[C@H](CCCNC(=N)N)NC(=O)CNC(=O)[C@H](CCCNC(=N)N)NC(=O)CNC(=O)[C@H](CCCNC(=N)N)NC(=O)CNC(=O)[C@H](CCCNC(=N)N)NC(=O)CNC(=O)[C@H](CCCNC(=N)N)NC(=O)CNC(=O)[C@H](CCCNC(=N)N)NC(=O)CNC(=O)[C@H](CCCNC(=N)N)NC(=O)CNC(=O)[C@H](CCCNC(=N)N)NC(=O)CNC(=O)[C@H](CCCNC(=N)N)NC(=O)CNC(=O)[C@H](CCCNC(=N)N)NC(=O)CNC(=O)[C@H](CCCNC(=N)N)NC(=O)CNC(=O)[C@H](CCCNC(=N)N)NC(=O)CNC(=O)[C@H](CCCNC(=N)N)NC(=O)CNC(=O)[C@H](CCCNC(=N)N)NC(=O)CNC(=O)[C@H](CCCNC(=N)N)NC(=O)CNC(=O)[C@H](CCCNC(=N)N)NC(=O)CNC(=O)[C@H](CCCNC(=N)N)NC(=O)CNC(=O)[C@H](CCCNC(=N)N)NC(=O)CN)C(=O)O [GR25] | 2.85 ± 0.51 µM |  | 
3 | B1 |  |  | Kd [1]: 2.85 µM; Kd [2]: 3.64 µM
4 | B2 |  | 1.84 µM | 
5 | B3 |  | 0.43 µM | 
